One substance from US8178091B2, “Compositions and methods for the treatment of respiratory disorders” (University of Washington, priority 2007, dated 2012) can be followed below.

Entries after “also recorded” stand apart in the source; their conditions may differ.

One test has as its target T1, IGF-1R (Mus musculus, UniProt Q60751).
T1 construct: Western blot analysis for IGF-1R on lungs and spleen lysates at day 14 post-bleomycin; from tissue; host or cells: mouse lung, spleen, kidney
The test can be described thus: IGF-1R expression in tissues after systemic A12 (IHC, Western blot). The format is in vivo, mice. The protocol:
ICR male mice are anesthetized under pentobarbital (60 mg/kg, i.v.) anesthesia, the cervical region is shaved and the skin is incised for about 4 mm from under the larynx region along the median line. Next, the muscle layer covering upper trachea is peeled off to expose the trachea. Using a micro-syringe, physiological saline or bleomycin hydrochloride (0.03 mg/animal, manufactured by Nippon Kayaku) is administered tracheally (50 μl/animal) from the tracheal smooth muscle region between cricoid cartilage. After the administration, the incised region is closed and antibiotics are administered into the thigh intramuscularly in order to prevent infection. IGF-1R inhibitor, e.g., antibody to IGF-1 receptor (A12). The A12 antibody was administered intraperitoneally at the time of bleomycin administration and subsequently 2-3× per week at a dose of 40 mg/kg (initial experiments involved dosing 3× per week, and later experiments dosed 2× per week; results were the same). […] Controls included bleomycin-treated animals receiving saline injection in place of A12 antibody. […] Lung hydroxyproline content is measured as a measure of fibrosis. Changes in lung tissue histology are also monitored. […] Bronchoalveolar lavage fluid (BALF) total cell count was determined by trypan blue exclusion and cell differential was determined on Diff quick (Dade Behring Ag, Düdingen, Switzerland) stained cytospins. […]
(A western blot detects proteins with antibodies after separation by electrophoresis.)

Test [1] relates to primary normal human lung fibroblasts. The test can be described thus: apoptosis assay (Cell Death Detection ELISA-plus), lung fibroblasts. The format is cell-based. The conditions noted are these: serum starvation, increasing concentrations; listed as IGF-1R antibody. On the procedure: A: Normal human lung fibroblast or distal lung epithelial cells were serum-starved overnight and then incubated with indicated concentration of IGF-1R antibody or IGFBP-3 overnight. B: A549 cells were serum-starved and incubated with IGF-1R antibody (136 μg/ml) with or without the indicated concentration of Fas ligand. Apoptosis was measured by Cell Death ELISA-plus ELISA (Roche Applied Science) per the manufacturer's directions. All experiments were done in triplicate and repeated at least twice. Apoptosis index is defined as the ratio of experimental condition OD405 nm: control (media alone) OD405 nm.
Primary normal human lung fibroblasts (Clonetics, Cambrex Bioscience, Rockland, Me.), primary distal lung human epithelial cells (Clonetics) or A549 (American Type Culture Collection, Manassas, Va.) were seeded in a 96-well tissue culture plate (2×10^4 cells/well) overnight and serum-starved for 24 hours. […] After 48 hours, apoptosis was measured. To prevent detached cells from being aspirated, plates were centrifuged at 200×g for 10 minutes, and apoptosis was measured using the Cell Death Detection ELISA-plus System (Roche Applied Science, Penzberg, Germany), which detects cytosolic histone-complexed DNA fragments. […]
Background: ELISA stands for enzyme-linked immunosorbent assay.

In another test the test system is fibroblasts. Description: Fas-induced apoptosis, fibroblasts. Type of test: cell-based, human. The conditions noted are these: data not shown. The protocol: Primary normal human lung fibroblasts (Clonetics, Cambrex Bioscience, Rockland, Me.), primary distal lung human epithelial cells (Clonetics) or A549 (American Type Culture Collection, Manassas, Va.) were seeded in a 96-well tissue culture plate (2×10^4 cells/well) overnight and serum-starved for 24 hours. Function blocking antibody to the human type 1 IGF receptor (A12), a generous gift from ImClone Systems (New York, N.Y.) (Burtrum D, et al., Cancer Res 63:8912-8921 (2003); Wu J D, et al., Clin Cancer Res 11:3065-3074 (2005)), was added to media at indicated concentration for 24 hours. In some experiments, soluble Fas ligand (Alexis Biochemicals, Lausen, Switzerland) or IGFBP-3 (R&D Systems) was added to cells. […] After 48 hours, apoptosis was measured. To prevent detached cells from being aspirated, plates were centrifuged at 200×g for 10 minutes, and apoptosis was measured using the Cell Death Detection ELISA-plus System (Roche Applied Science, Penzberg, Germany), which detects cytosolic histone-complexed DNA fragments. […] The data are reported as the mean absorbance of triplicate wells mean+SE or as apoptosis index, defined as the ratio of the mean absorbance of triplicate wells in the experimental condition OD405 nm/control (media alone) OD405 nm.

T1 sequence (Q60751 31-1373): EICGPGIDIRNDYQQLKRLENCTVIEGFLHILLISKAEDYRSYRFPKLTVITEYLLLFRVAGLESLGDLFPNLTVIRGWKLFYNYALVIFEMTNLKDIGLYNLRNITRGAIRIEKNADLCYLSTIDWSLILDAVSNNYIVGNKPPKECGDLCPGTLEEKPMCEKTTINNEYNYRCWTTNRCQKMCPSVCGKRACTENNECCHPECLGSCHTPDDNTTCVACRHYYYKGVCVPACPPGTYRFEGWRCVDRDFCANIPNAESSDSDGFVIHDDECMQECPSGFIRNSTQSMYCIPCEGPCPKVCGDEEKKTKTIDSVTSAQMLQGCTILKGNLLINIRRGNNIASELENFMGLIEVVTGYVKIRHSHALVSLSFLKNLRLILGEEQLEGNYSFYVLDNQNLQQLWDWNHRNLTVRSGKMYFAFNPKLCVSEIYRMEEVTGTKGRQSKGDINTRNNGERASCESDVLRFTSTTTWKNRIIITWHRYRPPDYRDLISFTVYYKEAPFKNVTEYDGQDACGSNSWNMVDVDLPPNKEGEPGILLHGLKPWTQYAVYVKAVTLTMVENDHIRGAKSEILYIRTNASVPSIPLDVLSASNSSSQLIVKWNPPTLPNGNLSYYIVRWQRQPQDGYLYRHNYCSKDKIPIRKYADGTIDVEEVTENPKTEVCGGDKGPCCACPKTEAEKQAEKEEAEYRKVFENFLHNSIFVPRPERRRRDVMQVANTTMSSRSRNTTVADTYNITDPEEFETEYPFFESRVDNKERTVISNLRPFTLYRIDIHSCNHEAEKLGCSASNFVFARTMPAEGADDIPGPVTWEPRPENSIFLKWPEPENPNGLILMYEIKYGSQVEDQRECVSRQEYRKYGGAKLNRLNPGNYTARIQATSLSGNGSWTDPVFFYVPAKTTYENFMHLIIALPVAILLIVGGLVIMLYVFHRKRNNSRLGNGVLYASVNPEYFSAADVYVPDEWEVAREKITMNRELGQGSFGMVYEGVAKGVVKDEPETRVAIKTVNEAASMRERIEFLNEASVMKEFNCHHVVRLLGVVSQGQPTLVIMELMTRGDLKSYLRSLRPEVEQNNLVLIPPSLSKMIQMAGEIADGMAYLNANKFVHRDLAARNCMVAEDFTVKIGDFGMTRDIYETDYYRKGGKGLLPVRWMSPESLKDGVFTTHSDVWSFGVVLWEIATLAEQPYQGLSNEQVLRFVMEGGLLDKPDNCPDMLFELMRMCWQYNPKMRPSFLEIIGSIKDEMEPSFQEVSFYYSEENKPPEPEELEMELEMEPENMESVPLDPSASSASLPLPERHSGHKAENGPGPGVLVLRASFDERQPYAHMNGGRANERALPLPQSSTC

Take “A12: Function blocking antibody to the human type 1 IGF receptor, gift from ImClone Systems”: the “IGF-1R expression in lungs” value in the test with IGF-1R (day 7 post-bleomycin, vs saline) is listed as “marked decrease in IGF-1R expression; also recorded: decreased IGF-1R expression”. The “IGF-1R in the kidney (Western blotting)” value in the test with IGF-1R (systemic effect of antibody) is reported as “down-regulation of IGF-1R in the kidney”. For the same substance, the “apoptosis of primary human lung fibroblasts” value in test [1] was “dose-dependent increase in apoptosis; also recorded: increased apoptosis”. Also, the “Fas-induced apoptosis of fibroblasts” value with fibroblasts is “did not alter Fas-induced apoptosis”.
